Assay results published in patent US8916149B2, “Preventing and treating sepsis” (University of Rochester, priority 2008, dated 2014).

Tested on: β1 and β3 integrin expressing HEK293T cells
Assay: Yeast surface display binding of mutant APCs on HEK293 cells
Set-up: species or system human
From the text: A broad-range of hosts and scaffolds based on ribosome display, phage display, and cell-surface display are used widely as systems to implement directed evolution (Hoogenboom, Nat. Biotechnol. 23:1105 (2005)). Among the cell surface display systems based on microbial and eukaryotic hosts, the yeast system offers the unique advantage of eukaryotic machinery that enables post-translational modification, glycosylation, and disulfide isomerization (Wittrup, Curr. Opin. Biotechnol. 12:392 (2001)). […] The yeast display system that was used employs the α-agglutinin yeast adhesion receptor to display recombinant proteins on cell surface of S. cerevisiae. The receptor consists of two proteins, Aga1 and Aga2 (FIG. 6). Aga1 is secreted and becomes covalently attached to β-glucan in the extracellular matrix of the yeast cell wall. Aga2 binds to Aga1 through two disulfide bonds, making it possible to express a protein of interest fused to Aga2.
Mixtures of 1 μg cDNA library and 0.5 μg of the Nhe1/BamH1 linearized pCTCON vector in 5 μl were transformed into 10^8 yeast cells by electroporation, which lead to ˜10^6 diversity in the library. Inside the cells, the cDNA library was recombined into the vector by the endogenous Gap repair protein. The yeast library of the human protein C was activated by thrombin. […]

B1: KR146/147GG+R177G: APC with combined substitutions K146G, R147G and R177G (protein)
chain: ANSFLEELRHSSLERECIEEICDFEEAKEIFQNVDDTLAFWSKHVDGDQCLVLPLEHPCASLCCGHGTCIDGIGSFSCDCRSGWEGRFCQREVSFLNCSLDNGGCTHYCLEEVGWRRCSCAPGYKLGDDLLQCHPAVKFPCGRPWGGMEKKRSHLKRDTEDQEDQVDPRLIDGKMTGRGDSPWQVVLLDSKKKLACGAVLIHPSWVLTAAHCMDESKKLLVRLGEYDLRRWEKWELDLDIKEVFVHPNYSKSTTDNDIALLHLAQPATLSQTIVPICLPDSGLAERELNQAGQETLVTGWGYHSSREKEAKRNRTFVLNFIKIPVVPHNECSEVMSNMVSENMLCAGILGDRQDACEGDSGGPMVASFHGTWFLVGLVSWGEGCGLLHNYGVYTKVSRYLDWIHGHIRDKEAPQKSWAP
Question: With B1 as the molecule, how does the “binding of yeast expressing mutant APC on HEK293 cells compared to WT APC” value read?
Answer: further enhanced
